The target in this test is carcinoembryonic antigen (CEA) (Homo sapiens (Human), UniProt P06731). In words: characterisation according to Example 2 (ELISA on CEA); told in words. The method, then: Supernatants from BHK cells, which had been transfected with the DNA constructs of the second version of the hum 250/183, were tested for their content of humMab and for the specificity of the humMab.
However, the polystyrene plates were coated with 75 μl of CEA at a concentration of 15 μg/ml. Equal volumes of different concentrations (consecutively dilutions 1:2)
(In general: An ELISA detects its analyte on a solid surface through an enzyme-linked reagent.)

B1: hum 250/183 (second version of the humanized Mab BW 250/183) (antibody, V domains shown)
VH: QVQLQESGPGLVRPSQTLSLTCTVSGFSDYYMNWVRQPPGRGLEWIGFISNKPNGHTTEYSASVKGRVTMLRDTSKNQFSLRLSSVTAADTAVYYCARDKGIRWYFDVWGQGSLVTVSS
VL: DIQMTQSPSSLSASVGDRVTITCRASSSVSYMHWYQQKPGKAPKPLIYATSNLASGVPSRFSGSGSGTDFTFTISSLQPEDIATYYCQQWSSNPLTFGQGTKVEIKR
As for B1, the binding result was “binds”.

These data come from US5645817, “Granulocyte-binding antibody constructs, their preparation and use” (Behringwerke Aktiengesellschaft, dated 1997).
